Source: paper PMC7801617, “Cancer associated talin point mutations disorganise cell adhesion and migration” (Scientific Reports, 2021)
No end group written: not given here.

Columns and labels:
[1] = molecular target: T1, talin-1 R7–R8 fragment, wildtype (residues 1355–1652) (mouse, UniProt P26039 1355-1652); assay: fluorescence polarisation; R7–R8 protein serially diluted from 60 µM with KANK1 (30–68) peptide at 1 µM, and from 75 µM with RIAM (4–30) peptide at 1 µM; 20 °C; CLARIOstar plate reader; one-site total binding equation; conditions: both partners purified
T1 construct: talin-1, mouse, R7–R8 domains, residues 1355–1652, made from full-length mouse talin-1 as template; also called R7–R8 WT; Wildtype R7–R8; source: E. coli BL21 (DE3), purified (HisTrap HP, HiTrap Q HP anion exchange)

[2] = molecular target: T2, talin-1 R7–R8 fragment (residues 1355–1652) with mutation R1368W (mouse, UniProt P26039 1355-1652, R1368W); assay: as above; conditions: both partners purified
T2 construct: talin-1, mouse, R7–R8 domains, residues 1355–1652, with R1368W; The mutation is a somatic mutation of human cancers (COSMIC; also in the 1000 Genomes database), put into the mouse talin-1 fragment by site-directed mutagenesis; also called R7–R8 R1368W; source: E. coli BL21 (DE3), purified (HisTrap HP, HiTrap Q HP anion exchange)

[3] = molecular target: T3, talin-1 R7–R8 fragment (residues 1355–1652) with mutation Y1389C (mouse, UniProt P26039 1355-1652, Y1389C); assay: as above; conditions: both partners purified
T3 construct: talin-1, mouse, R7–R8 domains, residues 1355–1652, with Y1389C; The mutation is a somatic mutation of human cancers (COSMIC), put into the mouse talin-1 fragment by site-directed mutagenesis; also called R7–R8 Y1389C; source: E. coli BL21 (DE3), purified (HisTrap HP, HiTrap Q HP anion exchange)

[4] = molecular target: the molecule itself; assay: SEC-MALS; 100 μM protein, room temperature, Superdex 75 column; Viscotek SEC–MALS 9 and RI detector; dimer or monomer
[5] = molecular target: T1, talin-1 R7–R8 fragment, wildtype …; assay: SEC; Vd1 and talin R7–R8 incubated at a 2:1 ratio at a concentration of 100 µM, analysed at room temperature; elution fractions on SDS-PAGE; conditions: both partners purified
[6] = molecular target: T2, talin-1 R7–R8 fragment (residues …); assay: as above; conditions: both partners purified
[7] = molecular target: T3, talin-1 R7–R8 fragment (residues …); assay: as above; conditions: both partners purified

T1 sequence (P26039 1355-1652): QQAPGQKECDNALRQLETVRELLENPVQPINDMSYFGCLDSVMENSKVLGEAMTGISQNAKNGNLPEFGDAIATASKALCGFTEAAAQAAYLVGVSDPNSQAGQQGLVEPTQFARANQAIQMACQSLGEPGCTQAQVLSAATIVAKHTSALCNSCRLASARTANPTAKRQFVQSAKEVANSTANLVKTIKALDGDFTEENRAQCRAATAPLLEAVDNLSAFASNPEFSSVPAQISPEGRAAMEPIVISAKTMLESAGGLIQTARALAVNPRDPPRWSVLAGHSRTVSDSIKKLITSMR
T3 sequence (P26039 1355-1652 Y1389C): as the sequence (P26039 1355-1652) above, with Y35C counted along it
T2 sequence (P26039 1355-1652 R1368W): as the sequence (P26039 1355-1652) above, with R14W counted along it

B1: RIAM (4–30) peptide (peptide)
peptide: SEDIDQMFSTLLGEMDLLTQSLGVDTC
modifications: also: BODIPY or Fluorescein dye coupled via C-terminal Cys
notes: RIAM, mouse, printed as residues 4–30; added C-terminal cysteine for coupling of the dye; also called RIAM peptide; LD-motif of RIAM; source: synthetic peptide (GLBiochem, China)
Does B1 bind [1]?
Result: binds

Does B1 bind [2]?
Result: binds

Does B1 bind [3]?
Result: binds

B2: talin-1 R13–DD fragment, wildtype (residues 2300–2541) (domain or fragment, mouse, UniProt P26039 2300-2541, looked up)
chain: DPTVIAENELLGAAAAIEAAAKKLEQLKPRAKPKEADESLNFEEQILEAAKSIAAATSALVKAASAAQRELVAQGKVGAIPANALDDGQWSQGLISAARMVAAATNNLCEAANAAVQGHASQEKLISSAKQVAASTAQLLVACKVKADQDSEAMKRLQAAGNAVKRASDNLVKAAQKAAAFEDQENETVVVKEKMVGGIAQIIAAQEEMLRKERELEEARKKLAQIRQQQYKFLPSELRDEH
notes: talin-1, mouse, R13 and dimerisation domain (DD), residues 2300–2541; Constitutive dimer by SEC–MALS; also called R13–DD WT; Talin R13–DD wildtype; source: E. coli BL21 (DE3), purified (HisTrap HP, HiTrap Q HP anion exchange)
With B2 as the binder, how does the “stoichiometry N” value [4] read?
Its value is 2.

B3: vinculin Vd1 domain (residues 1–258) (domain or fragment, UniProt P12003 1-258, looked up)
chain: MPVFHTRTIESILEPVAQQISHLVIMHEEGEVDGKAIPDLTAPVSAVQAAVSNLVRVGKETVQTTEDQILKRDMPPAFIKVENACTKLVRAAQMLQADPYSVPARDYLIDGSRGILSGTSDLLLTFDEAEVRKIIRVCKGILEYLTVAEVVETMEDLVTYTKNLGPGMTKMAKMIDERQQELTHQEHRVMLVNSMNTVKELLPVLISAMKIFVTTKNTKSQGIEEALKNRNFTVEKMSAEINEIIRVLQLTSWDEDAW
notes: vinculin, Vd1 domain, residues 1–258
B3 was tested. Which “stoichiometry N” value [5] did it give?
The value was 1.

What about the “stoichiometry N” value [6] of the same binder?
Its value is 1.

And the “stoichiometry N” value [7]?
The value was 2.
